# Test results published in patent publication US6150139A, “Bacterocide compositions and their preparation from micrococcus varians” (priority 1995, dated 2000).
# Assays:
# [1] = test system: strain of Lactococcus lactis which produces lacticin 481; assay: inhibition spectrum test on the lacticin 481 producer; type: cell-based
# From the text: When the strain of Lactococcus lactis which produces lacticin 481 is inoculated in the presence of a […] extract, as previously described in the inhibition spectrum test, the growth of the said strain is seen to be inhibited. The strain of Lactococcus lactis which produces lacticin 481 is immune to its own bacteriocin, lacticin 481, but is not immune to the […] produced by either of the two Micrococcus varians strains according to the present invention.
# Gram-negative bacteria = assay: agar well test, inhibition spectrum, Gram-negative bacteria; type: cell-based; details: results of Table V
# From the text: The inhibition spectrum of the supernatant is thus determined.
# [2] = test system: Lactobacillus bulgaricus (YL 5); assay: inactivation by enzymes, agar well test; type: physicochemical; details: 60 min, halo after treatment
# [3] = test system: Lactobacillus helveticus (N 2); assay: resistance to pH, agar well test; type: physicochemical; details: readjusted to pH 6-7
# [4] = test system: Lactobacillus helveticus (N 2); assay: resistance to heat, agar well test; type: physicochemical; details: for Inhibition halos (mm): 100 °C, pH 7
# [5] = test system: Lactobacillus helveticus (N 2); assay: resistance to heat and to pH, agar well test; type: physicochemical; details: for Inhibition halo (mm): 115 °C
# [6] = test system: Lactobacillus helveticus (N 2); assay: inactivation by enzymes, agar well test; type: physicochemical; details: for Inhibition halo diameter after enzyme treatment: 60 min
# [7] = Catalase (SIGMA C-10) 5 mg/ml, incubation 30 °C
# [8] = Ficin (SIGMA F-3266) 5 mg/ml, incubation 37 °C
# [9] = Pronase E (SIGMA P-8038) 5 mg/ml, incubation 37 °C
# [10] = Proteinase K (MERCK 1000 144) 5 mg/ml, incubation 37 °C
substance,measurement,setting,value
lacticin 481,growth of the lacticin 481-producing strain in presence of bacteriocin,[1],immune
"variacin: bacteriocin from Micrococcus varians strains CNCM I-1586 and CNCM I-1587, amino acid sequence SEQ ID NO:1 (GSGVIPTISHECHMNSFQFVFTCCS)",inhibitory effect on the growth of Gram-negative bacteria,Gram-negative bacteria,does not exert any inhibitory effect
same,Inactivation (mm),[2]; [7],27 mm
same,Inactivation (mm),[2]; [8],0 mm
same,Inactivation (mm),[2]; [9],0 mm
same,Inactivation (mm),[2]; [10],0 mm
same,Inhibition halos,"[3]; pH 2, 37 °C for 60 min",27 mm
same,Inhibition halos,"[3]; pH 4, 37 °C for 60 min",27 mm
same,Inhibition halos,"[3]; pH 6, 37 °C for 60 min",27 mm
same,Inhibition halos,"[3]; pH 8, 37 °C for 60 min",27 mm
same,Inhibition halos,"[3]; pH 10, 37 °C for 60 min",27 mm
same,Inhibition halos (mm),[4]; incubation time 15 min,27 mm
same,Inhibition halos (mm),[4]; incubation time 30 min,27 mm
same,Inhibition halos (mm),[4]; incubation time 60 min,27 mm
same,bactericidal activity after heating,[4]; 60 min incubation at 100 °C,not compromised
same,Inhibition halo (mm),"[5]; pH 4, 20 min",27 mm
same,bactericidal activity after pH combined with heat,"[5]; pH 4 or 7, combined with an elevated temperature",not compromised
same,Inhibition halo (mm),"[5]; pH 7, 20 min",27 mm
same,Inhibition halo diameter after enzyme treatment,[6]; [7],27 mm
same,Inhibition halo diameter after enzyme treatment,[6]; [8],0 mm
same,Inhibition halo diameter after enzyme treatment,[6]; [9],0 mm
same,Inhibition halo diameter after enzyme treatment,[6]; [10],0 mm
same,effect of proteolytic enzymes on bactericidal activity,"[6]; all proteolytic enzymes of Tables I and II, indicator strains N 2 and YL 5",suppress the bactericidal activity
same,influence of catalase on bactericidal activity,[6]; two indicator strains N 2 and YL 5,not found to exert any influence
